In patent US20170022281A1 (AbbVie / Abbott, published 2017):

Key:
[1] = target: T1, mouse PRLR on Baf3-mPRLR cells (mouse, UniProt Q08501 20-608); experiment: FACS Baf3-mPRLR 10 ug/mL
T1 construct: whole, on cells
T1 sequence (looked up): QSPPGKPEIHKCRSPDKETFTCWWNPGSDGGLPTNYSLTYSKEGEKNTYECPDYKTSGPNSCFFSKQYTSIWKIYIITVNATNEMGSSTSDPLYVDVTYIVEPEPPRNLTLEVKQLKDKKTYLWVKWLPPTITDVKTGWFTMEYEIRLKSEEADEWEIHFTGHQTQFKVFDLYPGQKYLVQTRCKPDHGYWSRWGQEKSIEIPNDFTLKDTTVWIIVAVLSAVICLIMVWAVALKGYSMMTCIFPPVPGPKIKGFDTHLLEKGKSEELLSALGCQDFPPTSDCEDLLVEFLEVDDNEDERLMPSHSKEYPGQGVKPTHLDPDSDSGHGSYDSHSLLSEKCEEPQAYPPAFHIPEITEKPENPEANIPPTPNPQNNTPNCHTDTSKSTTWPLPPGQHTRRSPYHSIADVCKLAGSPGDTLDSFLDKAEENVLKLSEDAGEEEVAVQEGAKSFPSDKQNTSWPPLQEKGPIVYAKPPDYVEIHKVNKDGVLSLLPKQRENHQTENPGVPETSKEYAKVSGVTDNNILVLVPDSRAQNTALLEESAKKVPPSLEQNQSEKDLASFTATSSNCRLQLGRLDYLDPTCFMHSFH
Experimental: Nb2-11 and Baf3-xPRLR cells were resuspended in FACS buffer (PBS+1% FBS) at 2 millions cells/mL. Cells were added to round bottom 96-well plate (100 uL/well) and treated with testing PRLR antibodies for 1 hr at 4 C. Cells were then washed with FACS buffer twice and incubated with 2nd antibody conjugated to ALEXA488 (Invitrogen) for 1 hr at 4 C. After two washes in FACS buffer, cells were resuspended in 1% formaldehyde in PBS. Cells were analyzed using LSRII flowcytometer.

[2] = target: T2, human PRLR (Biacore antigen) (human, UniProt P16471 25-234, limits assumed); experiment: SPR Biacore
T2 construct: The construct injected over captured antibody is not described (a soluble form is likely); also called huPRLR
T2 sequence: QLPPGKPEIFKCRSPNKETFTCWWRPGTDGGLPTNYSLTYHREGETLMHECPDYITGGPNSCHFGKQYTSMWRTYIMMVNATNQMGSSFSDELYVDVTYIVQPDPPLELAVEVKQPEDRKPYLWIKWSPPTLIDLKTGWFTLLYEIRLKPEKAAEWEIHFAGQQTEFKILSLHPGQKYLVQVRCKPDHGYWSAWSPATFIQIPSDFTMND

B1: Ab6 (antibody, V domains shown)
VH: QVQLQQPGAELVMPGSSVKLSCKASGYTFTTYWMHWVKQRPGQGLEWIGEIDPSDSYSNYNQKFKDKATLTVDKSSSTAYMQLSSLTSEDSAVYYCARNGGLGPAWFSYWGQGTLVTVSA
VL: DIVMTQSQKFMSTTVGDRVSITCKASQYVGTAVAWYQQKPGQSPKLLIYSASNRYTGVPDRFTDSGSGTDFTLTISNLQSEDLADYFCQQYSSYPWTFGGGTKLEIK
notes: murine monoclonal, isotype G1; also called murine Ab6
In the case of B1, the “FACS GeoMean-neg” value [1] is reported as 0.

B2: LFA102 (antibody, human IgG1, kappa, V domains shown)
VH: EVQLVESGGGLVQPGGSLRLSCAVSGFTFSSYGMSWVRQAPGKRLEWVATVSSGGTYTYYPDSVKGRFTISRDNSKNTLYLQMNSLRAEDTAMYYCARHRGNYYATYYYAMDYWGQGTLVTVSS
VL: DIVLTQSPDSLAVSLGERATINCKASKSVSTSGYTYMHWYQQKPGQPPKLLIYLASNRESGVPDRFSGSGSGTDFTLTISPVQAEDVATYYCQHSGELPPSFGQGTKLEIKR
notes: humanized IgG1 kappa comparator (WO 2008022295)
B2 was tested, and the “FACS GeoMean-neg” value [1] was 4.

B3: Ab12 (antibody, V domains shown)
VH: DVQLQESGPGLVKPSQSLSLTCTVTGYSITSDYAWNWIRQFPGNKLEWMGYIGYSGRTSFNPSLKSRISITRDTSKNQFFLQLNSVTTEDTATYYCARGGFAMDYWGQGTSVTVSS
VL: QIVLTQSPGIMSASPGEKVTMTCSASSSVTYMYWYQQKPRSSPKPWIYLTSNLASGVPARFSGSGSGTSYSLTISSMEAEDGATYYCQQWSSTPPLTFGGGTKLELN
notes: murine monoclonal, isotype G2a; reported as PRLR agonist; also called murine Ab12
In the case of B3, the “FACS GeoMean-neg” value [1] is reported as 90.

B4: Ab5 (antibody, V domains shown)
VH: QVQLQQPGAELVRPGTSVKLSCKASGYTFTSFWMHWVKQRPGQGLEWIGVIDPSDTYTNYNQKFKGKATLTVDTSSSTAYMQLSSLTSEDSAVYYCARGDYSNWFTYWGQGTLVTVSA
VL: DVVMTQTPLSLPVSLGDQASISCRSSQRLVHSNGNTYLHWYLQKPGQSPKLLIYKVSNRFSGVPDRFSGSGSGTDFTLKISRVEAEDLGVYFCSQSTHVPWTFGGGTKLEIK
notes: murine monoclonal, isotype G2a; also called murine Ab5
B4 was tested, and the “FACS GeoMean-neg” value [1] was 166.

B5: Ab11 (antibody, V domains shown)
VH: EVKLVESGGGLVQPGGSLKLSCAASGFTFSDYYMFWVRQTPEKSLEWVAYISNGGGSTYYPDTVKGRFTISRDNAKNTLYLQMSRLKSEDTAMYYCSRQLFYYGSRGAMGYWGQGTSVTVSS
VL: DVLMTQTPLSLPVSLGDQASISCRSSQSIVHSNGNTYLEWYLQKPGQSPKLLIYKVSNRFSGVPDRFSGSGSGTDFTLKISRVEAEDLGVYYCFQGSHVPFTFGSGTKLEIK
notes: murine monoclonal, isotype G1; also called murine Ab11
In the case of B5, the “FACS GeoMean-neg” value [1] is reported as 25.

B6: Ab7 (antibody, V domains shown)
VH: QVQLQQPGAELVMPGTSVKLSCKASGYTFTSYWIHWVKQRPGQGLEWIGEIDPSDSYTNYNQKFKGKATLTVDRSSSTAYMQLSSLTSEDSAVYYCGRSFFTNWFAYWGQGTLVTVSA
VL: DVVMTQTPLSLPVSLGDQASISCRSSQSLVHSNGNTYLHWYLQKPGQSPKLLIYKVSNRFSGVPDRFSGSGSGTDFTLKINRVEAEDLGVYFCSQSTHVPFTFGSGTKLEIK
notes: murine monoclonal, isotype G1; also called murine Ab7
B6 was tested, and the “FACS GeoMean-neg” value [1] was 27.

B7: Ab13 (antibody, V domains shown)
VH: QVQLQQPGAELVRPGTSVKLSCKASGYTFTSFWMHWVKQRPGQGLEWIGVIDPSDSHTNYNQKFKGKATLTVNTSSSTAYMHLSSLTSEDSAVYYCARGDYSNWFTYWGQGTLVTVSA
VL: DVVMTQTPFSLPVSLGDQASISCRSSQSLVHSNGNTYLHWYLQKPGQSPKLLIYKVSNRFSGVPDRFSGSGSGTDFTLKISRVEAEDLELYFCSQSTHVPWTFGGGTKLEIK
notes: murine monoclonal, isotype G2a; also called murine Ab13
B7 was tested, and the “FACS GeoMean-neg” value [1] was 143.

B8: Ab10 (antibody, V domains shown)
VH: EVQLHQSGPELVKPGASVKISCKASGYTFTDYNMHWMKQSHGKSLEWIGYFYPYNGGTGYNQEFKNKATLTVDISSSTAYMELRRLTSEDSAVYYCARGGWGIYYAMDYWGQGTSVTVSS
VL: DIQMTQSPASLSASVGETVTITCRASENIYSYLTWYQQKQGKSPQLLVYNAKTLAEGVPSRFSGSGSGTQFSLKINSLQPEDFGSYHCQHHSVTPLTFGAGTKLELK
notes: murine monoclonal, isotype G2a; also called murine Ab10
B8 was tested, and the “FACS GeoMean-neg” value [1] was 49.

B9: Ab39 (antibody, human IgG1, kappa, V domains shown)
VH: EVQLVQSGAEVKKPGSSVKVSCKASGYTFTSYWIHWVRQAPGQGLEWIGEIDPSDSYTNYNQKFKGRATLTVDKSSSTAYMELSSLRSEDTAVYYCARSFFTNWFAYWGQGTLVTVSS
VL: DVVMTQTPLSLSVTPGQPASISCRSSQSLVHSNGNTYLHWYLQKPGQSPQLLIYKVSNRFSGVPDRFSGSGSGTDFTLKISRVEAEDVGVYFCSQSTHVPFTFGGGTKVEIKR
notes: humanized from Ab7; G1; also called Ab4 HC.1a and Ab4 LC.1a
B9 was tested, and the “fold decrease in affinity against chAb7” value [2] was roughly 22 fold.
